Assay results published in publication PMC9614494, “Glutamate 1-semialdehyde aminotransferase is connected to GluTR by GluTR-binding protein and contributes to the rate-limiting step of 5-aminolevulinic acid synthesis” (The Plant Cell, 2022).

B1: recombinant 6xHis-GSAAT (enzyme)
chain: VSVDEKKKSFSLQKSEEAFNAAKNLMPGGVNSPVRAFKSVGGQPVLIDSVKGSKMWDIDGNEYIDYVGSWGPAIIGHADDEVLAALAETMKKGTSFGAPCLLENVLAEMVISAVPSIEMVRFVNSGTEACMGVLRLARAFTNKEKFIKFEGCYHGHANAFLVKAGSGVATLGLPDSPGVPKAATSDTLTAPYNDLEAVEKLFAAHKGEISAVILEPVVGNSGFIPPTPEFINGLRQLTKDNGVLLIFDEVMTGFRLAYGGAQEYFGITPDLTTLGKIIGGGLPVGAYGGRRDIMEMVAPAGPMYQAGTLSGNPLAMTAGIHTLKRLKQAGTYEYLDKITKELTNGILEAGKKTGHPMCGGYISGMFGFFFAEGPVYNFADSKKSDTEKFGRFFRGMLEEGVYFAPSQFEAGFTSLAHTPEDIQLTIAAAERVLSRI

Tests used:
Conditions in all cases: both partners purified
recombinant 6xHis-GSAAT = biological target: B1; test: MST; 6xHis-GBP labelled with RED-NHS 2nd generation as target, with or without GluTR, ligand in 1:1 dilutions from 5 nM to 110 µM; Monolith NT.115, 30°C, 40% LED power, PBS
recombinant 6xHis-GluTR = biological target: T1, recombinant 6xHis-GluTR (Arabidopsis thaliana, UniProt P42804 62-543); test: MST; 6xHis-GSAAT labelled with RED-NHS 2nd generation as target, 6xHis-GluTR titrated; Monolith NT.115, 30°C, PBS
T1 construct: Glutamyl-tRNA reductase (GluTR), Arabidopsis thaliana; Named only in the results on MST; the methods on purification list only GST-GluTR

[1] = biological target: T2, labelled 6xHis-GBP incubated with GluTR (GBP/GluTR) (Arabidopsis thaliana, UniProt Q9LU39 43-317; P42804 62-543, RED-NHS 2nd generation dye); test: MST; 6xHis-GBP labelled with RED-NHS 2nd generation as target, with or without GluTR, ligand in 1:1 dilutions from 5 nM to 110 µM; Monolith NT.115, 30°C, 40% LED power, PBS
T2 construct: as m7; Glutamyl-tRNA reductase (GluTR), Arabidopsis thaliana; The sentence on this titration says only GluTR; 6xHis-GluTR is named for the titration before it; source: recombinant proteins mixed before the titration (6xHis-GBP: E. coli Rosetta 2, purified)

Kd (recombinant 6xHis-GSAAT) [nM]	Kd (recombinant 6xHis-GluTR) [nM]	Kd [1] [nM]	Binder
178			recombinant 6xHis-GBP (natural protein, Arabidopsis thaliana, UniProt Q9LU39 43-317, looked up, Labelled with the dye RED-NHS 2nd generation where it was the MST target; unlabelled in the in vitro pull-down; also called 6× His-GBP; source: E. coli Rosetta 2, purified (Ni-NTA)) SVSTTLDTPATASTHKPFPAEVSRSIMELSSVGTLSTLTHDGWPLGVGVRFAVDKDGTPVLCLNRSVSPDKRSALHVQLEQCGLRTPQCTIQGSIGRPGDDTVLKRLSATWREKFGEEVKEDSLYVVAVDRVLQMEDFMEDGIWVASSDYKNASPDPLRDIAEDIVNQINANNMEDIFRFCNVYVDLDFVVSETKMIWMDRLGFDLRVWSPRGVYDVRIPFPMEVTDEKGAKSSFNGMSQLAWEVEKSYCPADFNKVKLLKQVVGSSHSHKGGGQ
	3000	940	B1
